This is an account of results in patent US20040253247A1 (Genentech, published 2004).

Like-named read-outs stand apart in the source and are kept apart here. Bridges are numbered along the chain shown (N, C = ends). Where no end group is shown, it is not given here. code n = not defined here

One assay has as its target bovine albumin (bovine, UniProt P02769 25-607). Description: phage ELISA, photograph of the plate. (ELISA stands for enzyme-linked immunosorbent assay.)
The target of the next assay is T1, ovalbumin (UniProt P01012 2-386).
T1 sequence (looked up): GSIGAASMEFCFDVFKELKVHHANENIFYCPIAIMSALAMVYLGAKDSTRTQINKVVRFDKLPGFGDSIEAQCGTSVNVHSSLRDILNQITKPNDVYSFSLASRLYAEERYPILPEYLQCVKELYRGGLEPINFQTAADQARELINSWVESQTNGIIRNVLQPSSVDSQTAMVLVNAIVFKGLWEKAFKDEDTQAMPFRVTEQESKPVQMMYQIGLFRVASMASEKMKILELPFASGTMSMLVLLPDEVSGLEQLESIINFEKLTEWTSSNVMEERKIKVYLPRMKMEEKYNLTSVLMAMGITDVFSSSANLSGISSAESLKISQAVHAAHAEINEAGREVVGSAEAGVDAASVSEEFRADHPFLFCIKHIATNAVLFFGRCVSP
Description: phage ELISA, photograph of the plate.

For assay [1], the target named is T2, human albumin (human, UniProt P02768 25-609). Briefly: phage ELISA. How it is done:
(§1) Phage ELISA—Phage clones (˜10¹¹ phage) were added to plates coated with rat, rabbit or human albumin. The microtiter plate was washed with wash buffer and bound phage were detected with HRP/Anti-M13 Conjugate. The amount of HRP bound was measured using ABTS/H₂O₂ substrate and monitoring the change at 405 nm.

For assay [2], the target named is T3, rat albumin (rat, UniProt P02770 25-608). Description: SA08b binding assay: competition with biotinylated SA08b for immobilized albumin. How it is done:
(§2) Plates were blocked using Blocker Casein (Pierce Chemical, Rockford, Ill.) for 1 hr, at 25° C. […] The amount of HRP bound was measured using ABTS/H₂O₂ substrate and monitoring the change at 405 nm.

For assay [3], the target named is T4, rabbit albumin (rabbit, UniProt P49065 25-608). Described as above. How it is done:
as §2

Assay [4] concerns the target T5, mouse albumin (mouse, UniProt P07724 25-608). Described as above. How it is done:
as §2

Assay [5] concerns the target T2, human albumin. Briefly: phage ELISA. How it is done: as §1
(§3) This was tested using a phage ELISA.
The source holds these as a separate data set.

The target of assay [6] is T4, rabbit albumin. Briefly: phage ELISA. As for the experimental part:
as §1, §3

Assay [7] deals with T3, rat albumin. Briefly: phage ELISA. As for the experimental part: as §1, §3
The target of assay [8] is T4, rabbit albumin. Briefly: phage ELISA. How it is done: as §1
This is another data set of the same source.

Assay [9] has as its target T3, rat albumin. Description: phage ELISA, photograph of the plate.
Assay [10] addresses T5, mouse albumin. Briefly: phage ELISA, photograph of the plate.
The target in the next assay is rhesus albumin (rhesus, UniProt Q28522 17-600). Briefly: phage ELISA, photograph of the plate.
rhesus albumin, sequence (Q28522 17-600 limits assumed): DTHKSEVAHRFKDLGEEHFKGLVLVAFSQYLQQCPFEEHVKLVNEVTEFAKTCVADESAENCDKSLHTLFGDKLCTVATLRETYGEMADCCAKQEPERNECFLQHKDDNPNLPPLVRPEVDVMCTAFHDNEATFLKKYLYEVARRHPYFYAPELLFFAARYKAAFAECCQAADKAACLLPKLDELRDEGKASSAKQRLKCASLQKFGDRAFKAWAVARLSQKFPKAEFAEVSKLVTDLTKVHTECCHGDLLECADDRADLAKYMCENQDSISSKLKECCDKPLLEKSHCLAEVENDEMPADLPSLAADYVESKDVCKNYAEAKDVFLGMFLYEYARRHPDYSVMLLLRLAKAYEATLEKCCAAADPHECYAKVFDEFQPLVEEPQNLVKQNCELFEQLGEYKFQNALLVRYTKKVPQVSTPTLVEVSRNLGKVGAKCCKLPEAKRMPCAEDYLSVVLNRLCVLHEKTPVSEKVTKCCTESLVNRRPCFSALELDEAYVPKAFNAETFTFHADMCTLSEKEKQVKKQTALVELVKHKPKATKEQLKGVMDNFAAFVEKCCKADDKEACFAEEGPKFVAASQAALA
The target in assay [11] is T3, rat albumin. Briefly: phage ELISA. As for the experimental part: as §1
This is another data set of the same source.

T4 sequence (P49065 25-608 limits assumed): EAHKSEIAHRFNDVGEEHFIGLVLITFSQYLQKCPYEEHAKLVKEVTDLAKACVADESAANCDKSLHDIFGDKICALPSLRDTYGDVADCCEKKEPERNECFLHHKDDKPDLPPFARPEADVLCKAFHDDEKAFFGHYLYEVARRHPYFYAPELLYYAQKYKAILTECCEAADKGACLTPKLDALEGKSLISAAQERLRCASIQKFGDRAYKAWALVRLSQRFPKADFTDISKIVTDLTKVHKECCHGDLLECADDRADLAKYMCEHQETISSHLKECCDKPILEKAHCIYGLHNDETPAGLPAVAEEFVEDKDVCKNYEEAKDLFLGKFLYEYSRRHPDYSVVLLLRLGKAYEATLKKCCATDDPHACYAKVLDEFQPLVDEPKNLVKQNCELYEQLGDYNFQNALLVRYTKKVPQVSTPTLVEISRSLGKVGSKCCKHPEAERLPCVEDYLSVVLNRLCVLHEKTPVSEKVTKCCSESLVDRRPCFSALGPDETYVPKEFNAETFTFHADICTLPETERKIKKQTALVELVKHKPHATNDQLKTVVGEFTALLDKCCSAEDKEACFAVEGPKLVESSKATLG
bovine albumin, sequence (P02769 25-607 limits assumed): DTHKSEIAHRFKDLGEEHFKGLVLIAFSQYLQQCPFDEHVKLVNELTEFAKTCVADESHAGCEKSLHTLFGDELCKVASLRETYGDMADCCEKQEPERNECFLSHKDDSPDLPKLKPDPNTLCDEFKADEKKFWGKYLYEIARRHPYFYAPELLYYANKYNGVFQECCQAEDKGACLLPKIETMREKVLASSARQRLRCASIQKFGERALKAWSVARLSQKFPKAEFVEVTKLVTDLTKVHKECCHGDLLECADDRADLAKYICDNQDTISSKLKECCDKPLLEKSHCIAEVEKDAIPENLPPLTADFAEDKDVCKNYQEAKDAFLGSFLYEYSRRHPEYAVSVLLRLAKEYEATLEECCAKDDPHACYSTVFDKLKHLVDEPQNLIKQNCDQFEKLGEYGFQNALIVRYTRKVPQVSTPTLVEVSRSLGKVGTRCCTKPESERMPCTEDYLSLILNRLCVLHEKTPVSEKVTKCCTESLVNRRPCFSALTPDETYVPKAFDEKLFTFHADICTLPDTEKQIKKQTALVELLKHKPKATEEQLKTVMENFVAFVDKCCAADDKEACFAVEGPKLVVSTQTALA
T5 sequence (P07724 25-608 limits assumed): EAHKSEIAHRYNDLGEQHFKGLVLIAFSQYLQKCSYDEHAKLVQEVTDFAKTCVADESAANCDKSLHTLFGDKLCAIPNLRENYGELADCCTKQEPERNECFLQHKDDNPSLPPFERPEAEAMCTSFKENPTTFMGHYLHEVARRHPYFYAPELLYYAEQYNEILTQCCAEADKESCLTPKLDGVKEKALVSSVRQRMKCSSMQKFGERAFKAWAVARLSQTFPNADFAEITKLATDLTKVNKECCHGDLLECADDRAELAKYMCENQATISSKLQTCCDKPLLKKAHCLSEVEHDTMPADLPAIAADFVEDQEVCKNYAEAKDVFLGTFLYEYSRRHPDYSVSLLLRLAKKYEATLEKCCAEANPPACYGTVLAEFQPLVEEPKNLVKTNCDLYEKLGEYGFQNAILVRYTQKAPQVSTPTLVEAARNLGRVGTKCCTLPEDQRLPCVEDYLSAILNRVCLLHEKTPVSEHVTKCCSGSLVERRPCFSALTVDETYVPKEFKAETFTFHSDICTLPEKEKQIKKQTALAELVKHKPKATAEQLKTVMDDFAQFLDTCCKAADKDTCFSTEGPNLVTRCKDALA
T3 sequence (P02770 25-608 limits assumed): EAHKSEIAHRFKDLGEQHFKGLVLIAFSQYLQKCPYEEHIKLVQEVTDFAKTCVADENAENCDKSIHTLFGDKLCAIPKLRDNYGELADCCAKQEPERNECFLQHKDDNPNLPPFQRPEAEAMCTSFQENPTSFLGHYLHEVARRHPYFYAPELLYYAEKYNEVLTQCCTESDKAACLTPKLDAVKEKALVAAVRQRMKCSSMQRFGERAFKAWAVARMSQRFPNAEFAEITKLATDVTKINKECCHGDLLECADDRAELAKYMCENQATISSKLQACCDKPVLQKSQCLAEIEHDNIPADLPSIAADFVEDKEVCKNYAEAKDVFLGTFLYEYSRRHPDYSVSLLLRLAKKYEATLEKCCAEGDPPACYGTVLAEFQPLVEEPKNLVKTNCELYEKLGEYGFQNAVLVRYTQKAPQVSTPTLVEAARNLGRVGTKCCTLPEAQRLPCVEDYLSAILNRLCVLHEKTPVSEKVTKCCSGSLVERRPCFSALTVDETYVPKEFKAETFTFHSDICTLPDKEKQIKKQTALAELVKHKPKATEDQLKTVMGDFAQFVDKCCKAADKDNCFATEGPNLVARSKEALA

B1: RC-R13 (peptide)
peptide: DICLPRWGCLW
notes: phage clone, Library RC
As to B1, the binding result with bovine albumin, with ovalbumin and with human albumin [1] was “no binding” in each case.

B2: SA04 (peptide)
peptide: DICLPRWGCLW-{code n}
modifications: disulfide 3-9 (inferred); reading uncertain; also: printed as Asp-Ile-Cys-Leu-Pro-Arg-Trp-Gly-Cys-Leu-Trp
notes: synthesized peptide
With B2, the values for the half-maximal inhibitory concentration (IC50) with rat albumin [2], in the assay with rabbit albumin [3] and in the assay with mouse albumin [4] were 787 nM, 8540 nM and 40 nM, respectively.

B3: SA09 (peptide)
peptide: Ac-EDICLPRWGCLWEDD-{code n}
modifications: disulfide 4-10 (inferred); reading uncertain; also: printed as Glu-Asp-Ile-Cys-Leu-Pro-Arg-Trp-Gly-Cys-Leu-Trp-Glu-Asp-Asp
notes: synthesized peptide
Consider B3, for which the IC50 in the assay with rat albumin [2] is 258 nM; with rabbit albumin [3], 1690 nM; with mouse albumin [4] it was 6 nM.

B4: RC (peptide)
peptide: DLCLRDWGCLW
notes: phage clone selected on rat SA
In the case of B4, the binding result with human albumin [5] and with rabbit albumin [6] was “no binding” throughout.

B5: BC (peptide)
peptide: DLCDVDFCWF
notes: phage clone selected on rabbit SA
As to B5, the binding result with human albumin [5] and with rat albumin [7] was “no binding” throughout.

B6: SA11 (peptide)
peptide: Ac-MEDICLPRWGCLWEDD-{code n}
modifications: disulfide 5-11 (inferred); reading uncertain; also: printed as Met-Glu-Asp-Ile-Cys-Leu-Pro-Arg-Trp-Gly-Cys-Leu-Trp-Glu-Asp-Asp
notes: synthesized peptide
B6: the IC50 in the assay with rat albumin [2] was 232 nM; with rabbit albumin [3], 1210 nM; with mouse albumin [4], 17 nM.

B7: HB (peptide)
peptide: RAPESFVCYWETICFERSEQ
modifications: not fully specified (bridges); printed as Arg-Ala-Pro-Glu-Ser-Phe-Val-Cys-Tyr-Trp-Glu-Thr-Ile-Cys-Phe-Glu-Arg-Ser-Glu-Gln; cysteine pairing not given here
notes: phage clone selected on human SA
As to B7, the figures for the binding result with human albumin [5], with rat albumin [7] and with rabbit albumin [6] were “binds”, “binds” and “no binding”, respectively.

B8: HA (peptide)
peptide: EVRSFCTDWPAEKSCKPLRG
modifications: not fully specified (bridges); printed as Glu-Val-Arg-Ser-Phe-Cys-Thr-Asp-Trp-Pro-Ala-Glu-Lys-Ser-Cys-Lys-Pro-Leu-Arg-Gly; cysteine pairing not given here
notes: as for B7
B8: the figures for the binding result in the assay with human albumin [5], with rat albumin [7] and in the assay with rabbit albumin [6] were “binds”, “no binding” and “no binding”, respectively.

B9: RD-R2 (peptide)
peptide: DTCADLVRLGLECWA
notes: phage clone, Library RD
As for B9, the binding result in the assay with ovalbumin, in the assay with human albumin [1] and with rabbit albumin [8] was “no binding” throughout.

B10: HC (peptide)
peptide: EMCYFPGICWM
modifications: not fully specified (bridges); printed as Glu-Met-Cys-Tyr-Phe-Pro-Gly-Ile-Cys-Trp-Met; cysteine pairing not given here
notes: as for B7
For the molecule B10, the binding result with human albumin [5] is reported as “binds”; with rat albumin [7] it was “binds”; in the assay with rabbit albumin [6], “no binding”.

B11: SA05 (peptide)
peptide: MEDICLPRWGCLWED-{code n}
modifications: disulfide 5-11 (inferred); reading uncertain; also: printed as Met-Glu-Asp-Ile-Cys-Leu-Pro-Arg-Trp-Gly-Cys-Leu-Trp-Glu-Asp
notes: synthesized peptide
Regarding B11, the values for the IC50 with rat albumin [2], in the assay with rabbit albumin [3] and with mouse albumin [4] were 161 nM, 804 nM and 6 nM, respectively.

B12: BA (peptide)
peptide: GENWCDSTLMAYDLCGQVNM
notes: as for B5
On to B12, for which the binding result in the assay with human albumin [5] and with rat albumin [7] was “no binding” in each case.

B13: BD (peptide)
peptide: KSCSELHWLLVEECLF
notes: as for B5
Take B13: the binding result with human albumin [5] and with rat albumin [7] was “no binding” throughout.

B14: RD (peptide)
peptide: DTCVDLVRLGLECWG
notes: as for B4
As to B14, the binding result in the assay with human albumin [5] and with rabbit albumin [6] was “no binding” throughout.

B15: HB-H2 (peptide)
peptide: RAAESSVCYWPGICFDRTEQ
modifications: not fully specified (bridges); cysteine pairing not given here
notes: phage clone, Library HB
With B15, the binding result with rat albumin [9], with ovalbumin, in the assay with mouse albumin [10] and with rabbit albumin [8] was “no binding” in each case.

B16: RBC-R14 (peptide)
peptide: EEDLCLPVWGCLWGA
modifications: not fully specified (bridges); cysteine pairing not given here
notes: phage clone, Library RBC
As to B16, the binding result in the assay with bovine albumin, with ovalbumin, in the assay with human albumin [1] and with rabbit albumin [8] was “no binding” throughout.

B17: SA12 (peptide)
peptide: Ac-MEDICLPRWGCLWED-{code n}
modifications: disulfide 5-11 (inferred); reading uncertain; also: printed as Met-Glu-Asp-Ile-Cys-Leu-Pro-Arg-Trp-Gly-Cys-Leu-Trp-Glu-Asp
notes: synthesized peptide
Regarding B17, the concentration for half-maximal inhibition (IC50) amounted to 205 nM in the assay with rat albumin [2], 1760 nM in the assay with rabbit albumin [3] and 13 nM in the assay with mouse albumin [4].

B18: SA07 (peptide)
peptide: QGLIGDICLPRWGCLWGDSV-{code n}
modifications: disulfide 8-14 (inferred); reading uncertain; also: printed as Gln-Gly-Leu-Ile-Gly-Asp-Ile-Cys-Leu-Pro-Arg-Trp-Gly-Cys-Leu-Trp-Gly-Asp-Ser-Val
notes: synthesized peptide
As to B18, the IC50 amounted to 35 nM in the assay with rat albumin [2], 30 nM with rabbit albumin [3] and 6 nM with mouse albumin [4].

B19: BA-B44 (peptide)
peptide: GEDWCDSTLLAFDLCGEGAR
notes: phage clone, Library BA
Take B19: the binding result with rhesus albumin, with bovine albumin, in the assay with rat albumin [9], with ovalbumin, in the assay with mouse albumin [10] and with human albumin [1] was “no binding” each time.

B20: RE (peptide)
peptide: CGCVDVSDWDCWSECLWSHGA
notes: as for B4
As for B20, the binding result in the assay with human albumin [5] and with rabbit albumin [6] was “no binding” throughout.

B21: HBC-H1 (peptide)
peptide: DSEVCYFPGICWSGT
notes: phage clone, Library HBC
As to B21, the binding result in the assay with ovalbumin, in the assay with rat albumin [11] and in the assay with rabbit albumin [8] was “no binding” each time.

B22: BB (peptide)
peptide: MDELAFYCGIWECLMHQEQK
notes: as for B5
Turning to B22, the binding result with human albumin [5] and with rat albumin [7] was “no binding” in each case.

B23: RA (peptide)
peptide: RNEDPCVVLLEMGLECWEGV
notes: as for B4
As to B23, the binding result with human albumin [5] and in the assay with rabbit albumin [6] was “no binding” in each case.

In general, IC50 refers to the concentration that inhibits the measured activity by half. A high value points to weaker potency in that assay.
